Source: US20200247903A1

Experiments:
[1] = target: Band 3 antigen on mouse erythrocytes (mouse) (UniProt P04919); assay: flow cytometry on mouse RBCs (++++ = MFI > 500)
[2] = target: Mouse CD24 (Heat Stable Antigen, Ly-52, Nectadrin) on mouse erythrocytes (mouse) (UniProt P24807); assay: flow cytometry on mouse RBCs (++++ = MFI > 500)
[3] = target: Mouse CD24 (Heat Stable Antigen, Ly-52, Nectadrin) on mouse erythrocytes (mouse) (UniProt P24807); assay: flow cytometry histogram on C57BL/6 mouse erythrocytes, PE-anti rat Ig; antibody quantity of this sample not given; RBC alone 2.80 [continued) I]
[4] = target: TER-119 antigen (Ly76, 52 kD glycophorin A-associated protein) on mouse erythrocytes (mouse); assay: as above
[5] = target: TER-119 antigen (Ly76, 52 kD glycophorin A-associated protein) on mouse erythrocytes (mouse); assay: cell-based or functional assay
[6] = target: TER-119 antigen (Ly76, 52 kD glycophorin A-associated protein) on mouse erythrocytes (mouse); assay: flow cytometry saturation binding on RBCs
[7] = target: TER-119 antigen (Ly76, 52 kD glycophorin A-associated protein) on mouse erythrocytes (mouse); assay: flow cytometry on mouse RBCs (++++ = MFI > 500)
[8] = target: TER-119 antigen (Ly76, 52 kD glycophorin A-associated protein) on mouse erythrocytes (mouse); assay: flow cytometry on mouse RBCs (+++ = MFI > 250)

Sequence of UniProt P24807 (P24807 27-53): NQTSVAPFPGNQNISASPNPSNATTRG
Sequence of UniProt P04919 (P04919 whole entry): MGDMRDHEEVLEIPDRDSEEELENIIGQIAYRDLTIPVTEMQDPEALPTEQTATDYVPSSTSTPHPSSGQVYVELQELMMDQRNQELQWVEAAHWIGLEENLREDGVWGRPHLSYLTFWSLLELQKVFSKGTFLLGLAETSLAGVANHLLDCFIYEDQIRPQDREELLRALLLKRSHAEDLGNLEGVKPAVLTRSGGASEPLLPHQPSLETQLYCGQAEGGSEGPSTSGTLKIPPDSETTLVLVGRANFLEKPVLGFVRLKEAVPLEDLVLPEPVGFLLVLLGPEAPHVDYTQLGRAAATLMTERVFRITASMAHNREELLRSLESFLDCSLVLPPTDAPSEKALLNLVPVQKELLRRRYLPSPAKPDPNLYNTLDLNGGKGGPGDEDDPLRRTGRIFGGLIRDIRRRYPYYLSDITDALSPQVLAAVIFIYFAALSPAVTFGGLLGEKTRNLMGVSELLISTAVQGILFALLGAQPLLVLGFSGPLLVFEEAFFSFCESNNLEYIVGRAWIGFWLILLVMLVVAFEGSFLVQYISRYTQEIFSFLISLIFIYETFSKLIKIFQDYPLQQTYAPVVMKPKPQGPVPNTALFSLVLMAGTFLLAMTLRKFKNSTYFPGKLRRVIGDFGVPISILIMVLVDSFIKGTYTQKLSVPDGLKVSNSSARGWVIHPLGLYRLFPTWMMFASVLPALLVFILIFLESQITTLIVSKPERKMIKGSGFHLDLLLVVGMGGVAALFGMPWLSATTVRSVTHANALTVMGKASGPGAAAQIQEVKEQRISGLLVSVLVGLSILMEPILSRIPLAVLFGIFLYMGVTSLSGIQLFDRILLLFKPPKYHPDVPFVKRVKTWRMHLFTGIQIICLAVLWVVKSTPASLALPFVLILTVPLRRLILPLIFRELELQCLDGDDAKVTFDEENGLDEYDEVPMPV

With “34-3C (anti-Band 3 mAb, mouse IgG2a) (antibody)” the MFI [1] was over 500 mfi.

“M1/69 (rat IgG2b antibody to mouse CD24)” was tested, and the MFI [2] was over 500 mfi and the Median : YLW-HLog [3] was 113.

Work on Isotype control (antibody) yielded a Median : YLW-HLog [3] of 2.76 and a Median : YLW-HLog [4] of 2.76.

B1: TER-119 antibody (rat IgG2b monoclonal antibody to the mouse TER-119 antigen) (antibody, V domains shown)
VH: EVKLQESGGGLVQPGGSLKLSCVASGFTFRDHWMNWVRQAPGKTMEWIGDIRPDGSDTNYAPSVRNRFTISRDNARSILYLQMSNMRSDYTATYYCVRDSPTRAGLMDAWGQGTSVTVSS
VL: DIQMTQSPSVLSASVGDRVTLNCKASQNINKYLNWYQQKLGEAPKVLIYNTNNLQTGIPSRFSGSGSGTDFTLTISSLQPEDFATYFCFQHYTWPTFGGGTKLEIKR
B1 showed a phagocytic index of TER-119 opsonized RBCs by RAW264.7 macrophages (lowest effective concentration) [5] of 1.25 µg/mL, a phagocytic index of TER-119 opsonized RBCs by RAW264.7 macrophages (plateau) [5] of 5 µg/mL and a Kd [6] of 30 nM. The MFI [7] was over 500 mfi and the Median : YLW-HLog [4] was 112.

B2: Deglycosylated TER-119 (antibody, V domains shown)
VH: B1 VH
VL: B1 VL
modifications: Fc glycan removed (a variant without the Fc glycan)
B2 showed an MFI [8] of 250 to 500 mfi and a Median : YLW-HLog [4] of 126.
